Source: paper doi:10.1101/2020.09.24.310243
Read-outs that look alike come from different tables or passages of the source.

Key:
[1] = biological target: E. coli DNA gyrase A2B2 complex (E. coli) (UniProt P0AES4)
[2] = biological target: E. coli DNA gyrase subunit B, full-length, untagged (E. coli) (UniProt P0AES6)
[3] = biological target: GyrB 43 kDa domain (GyrB43), N-terminal ATPase/transducer domain of E. coli GyrB (E. coli)
[4] = biological target: E. coli DNA gyrase A2B2 complex (E. coli) (UniProt P0AES4); remark: listed apart in the source
[5] = biological target: E. coli DNA gyrase A2B2 complex (E. coli) (UniProt P0AES4); remark: listed apart in the source
[6] = biological target: [Alexa488]-QnrB1 (QnrB1-His labelled at the N-terminus with AlexaFluor 488); assay: fluorescence polarisation
[7] = biological target: [Alexa488]-QnrB1 (QnrB1-His labelled at the N-terminus with AlexaFluor 488); assay: fluorescence polarisation; remark: listed apart in the source

Q: “AlbG with a thrombin-cleavable N-terminal hexahistidine tag (natural protein)” was tested. Which rescue of gyrase supercoiling from 3.3 μM albicidin by AlbG, EC50 [1] did it give?
A: 1200 nM

Q: With “QnrB1 with a C-terminal 6xHis tag (wild type, unlabelled) (natural protein)” as the substance, how does the ATPase activity of the full-length GyrB subunit with QnrB1 (not shown) [2] read?
A: < 2 fold

Q: What about the ATPase rate of 4 μM GyrB43 with 5 μM QnrB1 against no QnrB1 [3] of the same substance?
A: 17 fold

Q: And the ATP hydrolysis rate of 50 nM gyrase A2B2 in the absence of DNA, with 5 μM QnrB1 [4]?
A: 3 fold

Q: What about the inhibition of gyrase supercoiling by QnrB1 without CFX, IC50 [5] of the same substance?
A: 11000 nM

Q: With “E. coli DNA gyrase subunit B, full-length, untagged (from UniProt P0AES6 1-804) (natural protein)” as the substance, how does the KdHi (high-affinity site of the two-site fit) [6] read?
A: 0.06 µM

Q: What about the KdHi (high-affinity site of the two-site fit), with ADPNP [7] of the same substance?
A: 0.16 µM

Q: For “E. coli DNA gyrase A2B2 complex (from UniProt P0AES4 1-875; P0AES6 1-804)”, which Kd [6] is on record?
A: 80 nM

Q: What about the Kd [7] of the same substance?
A: 1780 nM

Q: What does the source list for “GyrB 43 kDa domain (GyrB43), N-terminal ATPase/transducer domain of E. coli GyrB (domain or fragment)”?
A: Kd [6]: 1670 nM; Kd [7]: 18000 nM
